Laboratory results: PMC8885854, “Targeting macrophage TFEB-14-3-3 epsilon Interface by naringenin inhibits abdominal aortic aneurysm” (Cell Discovery, 2022)
Blank lines part the entries; values can stand above or below the molecule they belong to. Primed or numbered codes have the meaning given here. Where no end group is shown, it is not given here. [ ]: non-standard residue; d: D form. pS = N[C@@H](COP(=O)(O)O)C(=O)O; FITC′ = not defined here

Columns and labels:
[1] = biological target: T1, 14-3-3 epsilon (14-3-3ε, YWHAE) (Mus musculus, UniProt P62259); assay: ITC with purified protein; supported by CETSA/ITDRF-CETSA in macrophage lysates and FP displacement of p-TFEB peptide (IC50 […]); assay type: binding
T1 construct: full-length mouse 14-3-3ε, His-tagged, from Sf9 cells
T1 sequence (P62259 1-255): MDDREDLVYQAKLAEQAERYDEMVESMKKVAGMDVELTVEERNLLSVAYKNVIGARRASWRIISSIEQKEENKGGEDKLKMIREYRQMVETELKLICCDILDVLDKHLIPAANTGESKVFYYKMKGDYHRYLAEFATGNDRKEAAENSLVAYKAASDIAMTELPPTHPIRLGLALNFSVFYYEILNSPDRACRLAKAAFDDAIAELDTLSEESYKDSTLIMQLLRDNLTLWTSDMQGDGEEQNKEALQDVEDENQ

[2] = biological target: T2, His-14-3-3ε (full-length mouse 14-3-3ε, purified) (mouse, UniProt P62259 1-255); assay: fluorescence polarisation; direct binding: His-14-3-3ε serially diluted (1-4000 nM) against FITC-labelled peptide (10 nM solution); 25 mM HEPES pH 7.5, 100 mM NaCl, 1 mg/ml BSA, 0.05% CHAPS; 60 min at 25 °C; conditions: both partners purified
T2 construct: 14-3-3 epsilon, mouse, full length; also called 14-3-3 epsilon; 14-3-3ɛ; source: Sf9 (Bac-to-Bac baculovirus), purified (Ni-NTA), at least 70% pure
T2 sequence (looked up): T1 sequence (P62259 1-255)

Molecule: O=C1C[C@@H](c2ccc(O)cc2)Oc2cc(O)cc(O)c21 [NGN, naringenin]
- Kd [1]: 30.6 ± 7.99 µM

- Kd [2]: 9.68 nM
B1: phosphorylated TFEB peptide (p-TFEB peptide, LVGVTSSpSCPADLTQ) with C-terminal FITC (peptide)
peptide: LVGVTSS[pS]CPADLTQ-{FITC′}
notes: also called p-TFEB-FITC; source: synthetic peptide

- Kd [2]: 2.4 nM
B2: control phosphor-peptide (p-control peptide, MARSHpSYPAKKK) with C-terminal FITC (peptide)
peptide: MARSH[pS]YPAKKK-{FITC′}
notes: control phosphopeptide with the conventional 14-3-3 motif RSXpSXP; source: synthetic peptide
